Measured values reported in the supplement of paper PMC10567573.
± gives the standard deviation.

Test: protein stability index of a GFP-peptide fusion (GPS, HEK-293T) (PSI 1-6); higher = more stable
Conditions: c terminus: a fixed tail appended
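Note: 24-mer peptide tiles fused after GFP, lentivirally expressed, FACS-sorted into six equal bins by GFP/DsRed ratio, decoded by Illumina sequencing, PSI is the read-weighted mean bin number.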

Row | Sequence | protein stability index (treatment: DMSO) | protein stability index (treatment: MLN4924 1 uM, 8 h)
1 | KTSSSSKAGFTASPFTNLLNGSSQ [CDC14A] | 3.46 ± 0.27 | 3.51 ± 0.31
2 | YVQEKRDGLKRRQQLEEELLRAKI [RAD54B] | 2.71 ± 0.66 | 3.38 ± 0.78
3 | RYVSNWDFFIVGCEVIFCVFIFYY [PKD2L1] | 3.07 ± 0.34 | 2.89 ± 0.32
4 | GDPLNCHSYLSGYISLLLRAEPYP [NR2F2] | 2.76 ± 0.82 | 2.71 ± 0.65
5 | RKKRLLDRKVLLKSDSPTGDVLLD [GOLPH3L] | 4.22 ± 0.14 | 4.14 ± 0.19
6 | LQIYQYVPKDQRLQAIKAAIMLLP [DLC1] | 2.64 ± 0.62 | 2.41 ± 0.58
7 | GKPLIPPMNRRNILVMKHNYSQDA [NETO1] | 2.98 ± 0.4 | 3.31 ± 0.28
8 | HQADLEVANRHGHTCLMISCYKGH [FEM1A] | 2.73 ± 0.33 | 2.69 ± 0.45
9 | LKNGSMGSPVNQQPKKNNVMARTR [FAM219A] | 3.96 ± 0.32 | 4.13 ± 0.27
10 | ASEYCPGKLSWGTMARALGRFKLS [WDR88] | 2.49 ± 0.42 | 2.67 ± 0.29
11 | MENIGAIQVLPKLSSSIIHEIDSI [KCNAB2] | 3.53 ± 0.34 | 3.51 ± 0.29
12 | VSHPIIYRGAVYADNMEFEQCIKL [FEM1B] | 2.5 ± 0.48 | 2.5 ± 0.25
13 | HVAGEQMLEDGPHNANRGQRLLAF [CCDC70] | 4.07 ± 0.25 | 4.04 ± 0.24
14 | RSHPDNAIPIKSWFSDPSDTALLN [CTDNEP1] | 3.73 ± 0.18 | 3.87 ± 0.18
15 | EVAEQLELERIGPQHQAGSDSLLT [CNOT7] | 4.9 ± 0.14 | 4.85 ± 0.15
16 | IHQESGKAPSTDDATWAAVAACTK [C10orf62] | 4.56 ± 0.18 | 4.72 ± 0.32
17 | SEKRRDPPNGPNLPMATVDIKNPE [WASL] | 5.35 ± 0.11 | 5.28 ± 0.17
18 | TFRVSSDLIKHQRIHTEEKPYKCQ [ZNF75A] | 3.67 ± 0.15 | 3.8 ± 0.23
19 | VSGGSAGGYGGGVSCGFGGGAGSG [KRT13] | 3.47 ± 0.38 | 3.55 ± 0.19
20 | GCMLIELALRGRLQLEACGMRRKS [GOLPH3] | 1.83 ± 0.31 | 2.25 ± 0.28
21 | LVFEHVDQDLRTYLDKAPPPGLPA [CDK4] | 2.7 ± 0.36 | 2.88 ± 0.34
22 | MPQYILREFKVTDARDGQSRTVRQ [PTPRD] | 3.75 ± 0.18 | 4.18 ± 0.27

Row | Sequence | protein stability index (treatment: DMSO) | protein stability index (treatment: MLN4924 1 uM, 8 h)
23 | SKRKAETWKKNRRQLAYSTVGTPD [STK38L] | 4.02 ± 0.41 | 4.33 ± 0.5
24 | MASDTPESLMALCTDFCLRNLDGT [ZER1] | 3.88 ± 0.14 | 3.43 ± 0.41
25 | FTLKEEKPKMYFMTMIVSLAAVAW [ARL6IP1] | 3.4 ± 0.81 | 2.8 ± 0.86
26 | QVESRWGYSGTSDRIRFTVNRRIS [BTBD1] | 3.38 ± 0.23 | 3.53 ± 0.37
27 | HLVQHQRIHSGEKPYECNECGKAF [ZNF232] | 3.65 ± 0.21 | 3.8 ± 0.098
28 | KNHVGKPLLKMDLNSEQAEQLERI [FAM98B] | 4.8 ± 0.16 | 4.67 ± 0.19
29 | SEDSFCRRHPGLGKAFPSGCSAVS [TRAF3IP2] | 3.66 ± 0.24 | 3.46 ± 0.33
30 | SLGSALKPGEGRSALFAGNEWRRP [TRIM29] | 3.46 ± 0.26 | 3.31 ± 0.21
31 | HTGLKPYECGVCAKKFMWRDSFMR [ZBTB22] | 2.65 ± 0.52 | 2.44 ± 0.6
32 | GVGKSALTVQFVQGIFVEKYDPTI [RAP1B] | 2.25 ± 0.28 | 2.07 ± 0.25
33 | PPRREPLPSRRDVYLSPRDDGYST [RBMX] | 4.09 ± 0.16 | 4.23 ± 0.29
34 | MATSRYEPVAEIGVGAYGTVYKAR [CDK4] | 3.2 ± 0.094 | 3.2 ± 0.24
35 | LKPTFTKQQIANLDKQAKLSRAYD [USP39] | 3.61 ± 0.11 | 3.74 ± 0.16
36 | AADVWSLGVALFTMLAGHYPFQDS [TRIB3] | 2.96 ± 0.098 | 2.94 ± 0.2
37 | PLVEKKRRARINESLQELRLLLAG [HES6] | 2.63 ± 0.6 | 2.75 ± 0.73
38 | LPHPGLQVATSPDFDGKLKDIAGE [ATL3] | 4.91 ± 0.25 | 5.11 ± 0.26
39 | EISEAFTSTGFDRHTSPVFSPANP [BCL2L13] | 3.9 ± 0.24 | 3.99 ± 0.25
40 | HVEVARLLLENGAGINTHSNEFKE [ANKRD17] | 3.69 ± 0.39 | 3.39 ± 0.22
41 | VYLANQAKNQSDEAKEAKGSGYEK [RTP4] | 4.96 ± 0.52 | 5.08 ± 0.21
42 | QYYRWLNYGGVIKNYFQHREFSFT [PRIM1] | 2.34 ± 0.64 | 1.98 ± 0.47
43 | EAIKNEMNVMLKSSPVDLVTATDQ [IMPA1] | 4.21 ± 0.11 | 4.67 ± 0.17
44 | SKYQLSEAQLSLIRDIRRRGKNKM [NFE2L1] | 3.69 ± 0.28 | 3.9 ± 0.54
